Source: the supplement of paper PMC7877785
± gives the uncertainty stated by the source.

Experiment: self-splicing fitness, log relative to wild type (ln ratio); higher = more splicing; Tetrahymena group I intron in knt gene, E. coli kanamycin selection, DiMSum; sequences stand for … in CUCUCU…GGAGGGAAAAGUUAUCAGGCAUGCACCUGGUAGCUAGUCUUUAAACCAAUAGAUUGCAUCGGUUUAAAAGGCAAGACCGUCAAAUUGCGGGAAAGGGGUCAACAGCCGUUCAGUACCAAGUCUCAGGGGAAACUUUGAGAUGGCCUUGCAAAGGGUAUGGUAAUAAGCUGACGGACAUGGUCCUAACCACGCAGCCAAGUCCUAAGUCAACAGAUCUUCUGUUGAUAUGGAUGCAGUUCACAGACUAAAUGUCGGUCGGGGAAGAUGUAUUCUUCUCAUAAGAUAUAGUCGGACCUCUCCUUAAUGGGAGCUAGCGGAUGAAGUGAUGCAACACUGGAGCCGCUGGGAACUAAUUUGUAUGCGAAAGUAUAUUGAUUAGUUUUGGAGUACUCGUGGUCG
Summary of the method: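 DiMSum derived fitness as the error-weighted combination of fold changes across replicates, kanamycin versus no kanamycin, normalised to wild type. E. coli BL21(DE3) held the library, which randomised all eight P1ex-region intron nucleotides within the knt kanamycin-resistance gene on pET-22b(+). Six replicate transformations grew overnight at 37°C or 30°C on LB agar with or without 25 μg/mL kanamycin, also containing 100 μg/mL carbenicillin, 50 μM IPTG and 0.2% rhamnose, and pooled colonies were amplicon-sequenced on an Illumina HiSeq 2500.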

Sequence	self-splicing fitness (ln) (30 °C)	self-splicing fitness (ln) (37 °C)
AUGCAGCAAUAUUACGCGAU	-3.67 ± 0.3	-1.92 ± 0.25
CGAGAGCAAUAUUACGAGUU	-3.56 ± 0.34	-2.18 ± 0.34
UGGAAGCAAUAUUACGGCAA	-1.72 ± 0.39	0.0721 ± 0.21
ACGCAGCAAUAUUACGGUGG	-2.52 ± 0.11	-1.17 ± 0.11
AAUAAGCAAUAUUACGUCCC	-0.502 ± 0.17	0.393 ± 0.26
AGAAAGCAAUAUUACGGGUG	-1.41 ± 0.089	-1.36 ± 0.14
ACAAAGCAAUAUUACGCCGC	-3.43 ± 0.31	-1.52 ± 0.28
AUAUAGCAAUAUUACGCCAA	-1.24 ± 0.45	-0.89 ± 0.42
AACGAGCAAUAUUACGGAUU	-2.3 ± 0.14	-1.4 ± 0.19
UACUAGCAAUAUUACGAACA	-0.0493 ± 0.19	-0.55 ± 0.15
UUCCAGCAAUAUUACGUCUG	-2.71 ± 0.15	-2.28 ± 0.24
GUAUAGCAAUAUUACGCGGA	-3.08 ± 0.33	-0.662 ± 0.2
AGCCAGCAAUAUUACGAGCU	-3.38 ± 0.21	-3 ± 0.35
AUUGAGCAAUAUUACGCGUC	-3.26 ± 0.19	-1.73 ± 0.2
UGCGAGCAAUAUUACGACAA	-1.55 ± 0.3	-0.809 ± 0.2
AUCUAGCAAUAUUACGCACA	-0.774 ± 0.11	0.129 ± 0.12
ACUAAGCAAUAUUACGGUGC	-2.36 ± 0.11	-2.02 ± 0.15
CGUUAGCAAUAUUACGAUCA	-0.373 ± 0.16	0.245 ± 0.17
CACUAGCAAUAUUACGCACA	-0.953 ± 0.094	-0.695 ± 0.08

Sequence	self-splicing fitness (ln) (30 °C)	self-splicing fitness (ln) (37 °C)
UGCAAGCAAUAUUACGCGCU	-1.28 ± 0.12	-0.818 ± 0.12
GGUAAGCAAUAUUACGUAGA	-1.56 ± 0.13	-1.54 ± 0.21
GCGUAGCAAUAUUACGCGUG	-4.06 ± 0.28	-2.71 ± 0.15
AAUGAGCAAUAUUACGCAGU	-2.51 ± 0.2	-3.29 ± 0.31
ACCGAGCAAUAUUACGCCGA	-2.48 ± 0.47	-2.74 ± 0.38
CAUAAGCAAUAUUACGGAUG	-3.14 ± 0.14	-2.17 ± 0.15
GAGAAGCAAUAUUACGCACG	-0.497 ± 0.14	-0.392 ± 0.15
GUUUAGCAAUAUUACGAGCG	-1.6 ± 0.12	-0.465 ± 0.12
GUUGAGCAAUAUUACGCAUA	-2.36 ± 0.24	-1.1 ± 0.17
GAGAAGCAAUAUUACGGAGC	-3.83 ± 0.4	-1.84 ± 0.23
GCUCAGCAAUAUUACGCCAU	-3.28 ± 0.48	-2.26 ± 0.36
AUCAAGCAAUAUUACGGCGA	-0.555 ± 0.077	0.246 ± 0.1
AAUAAGCAAUAUUACGGCUA	0.107 ± 0.1	0.0369 ± 0.13
UCGAAGCAAUAUUACGGAAA	-1.95 ± 0.49	-0.855 ± 0.25
AAGUAGCAAUAUUACGAGGU	-1.94 ± 0.13	-1.97 ± 0.17
GAUAAGCAAUAUUACGUCCA	-1.72 ± 0.15	-0.215 ± 0.17
AUCGAGCAAUAUUACGGCUA	-1.22 ± 0.12	-1.28 ± 0.12
GCAGAGCAAUAUUACGCCGG	-2.85 ± 0.45	-0.641 ± 0.35
